From the Immune Epitope Database (IEDB) come the findings set out here.

The target in assay [1] is HLA-A*02:01. Briefly: IEDB peptide-MHC binding, purified MHC/competitive/fluorescence; ≥ and ≤ were set here for values at or beyond the usual limits of such assays.
A further assay deals with HLA-B*07:02. Briefly: IEDB peptide-MHC binding, purified MHC/direct/fluorescence; filed as Kd, often an IC50 or EC50 that approximates it; ≥ and ≤ were set here for values at or beyond the usual limits of such assays.
Another assay has as its target HLA-A*30:02. Briefly: IEDB peptide-MHC binding, purified MHC/competitive/radioactivity; filed as Kd, often an IC50 or EC50 that approximates it; ≥ and ≤ were set here for values at or beyond the usual limits of such assays.
The target of another assay is HLA-A*26:01. The assay is described as above.
The target of assay [2] is HLA-A*03:01. The assay is described as follows: IEDB peptide-MHC binding, purified MHC/direct/fluorescence; filed as Kd, often an IC50 or EC50 that approximates it; ≥ and ≤ were set here for values at or beyond the usual limits of such assays.
The next assay has as its target HLA-A*31:01. The description is as above. The settings on record: source organism: Vibrio cholerae.
Assay [3] addresses HLA-A*02:01. Briefly: IEDB peptide-MHC binding, purified MHC/competitive/fluorescence; filed as Kd, often an IC50 or EC50 that approximates it; ≥ and ≤ were set here for values at or beyond the usual limits of such assays.
Another assay has as its target HLA-B*58:01. Briefly: IEDB peptide-MHC binding, purified MHC/direct/fluorescence; filed as Kd, often an IC50 or EC50 that approximates it; ≥ and ≤ were set here for values at or beyond the usual limits of such assays.
In assay [4] the target is HLA-A*01:01. The assay is described as above. To be noted: source organism: Homo sapiens.
Assay [5] concerns the target HLA-A*11:01. Described as above. The settings on record: source organism: Homo sapiens.
A further assay concerns the target HLA-A*69:01. The assay is described as above.
A further assay concerns the target HLA-B*15:01. The description is as above.
The target of assay [6] is HLA-A*01:01. Briefly: IEDB peptide-MHC binding, purified MHC/competitive/radioactivity; filed as Kd, often an IC50 or EC50 that approximates it; ≥ and ≤ were set here for values at or beyond the usual limits of such assays.
In the next assay the target is HLA-B*27:05. Briefly: IEDB peptide-MHC binding, purified MHC/direct/fluorescence; filed as Kd, often an IC50 or EC50 that approximates it; ≥ and ≤ were set here for values at or beyond the usual limits of such assays. The settings on record: source organism: Homo sapiens.
In assay [7] the target is HLA-A*02:01. The assay is described as above.
The target of another assay is HLA-A*24:02. The assay is described as follows: IEDB peptide-MHC binding, purified MHC/competitive/radioactivity; filed as Kd, often an IC50 or EC50 that approximates it; ≥ and ≤ were set here for values at or beyond the usual limits of such assays. To be noted: source organism: Dengue virus 3 Martinique/1243/1999.
Assay [8] deals with HLA-A*03:01. The assay is described as above. The settings on record: source organism: Dengue virus 3 Martinique/1243/1999.
Assay [9] has as its target HLA-A*11:01. The description is as above. To be noted: source organism: Dengue virus 3 Martinique/1243/1999.
The target in a further assay is HLA-B*40:01. Briefly: IEDB peptide-MHC binding, purified MHC/direct/fluorescence; filed as Kd, often an IC50 or EC50 that approximates it; ≥ and ≤ were set here for values at or beyond the usual limits of such assays. To be noted: source organism: Influenza A virus (A/Moscow/343/2003(H3N2)).
A further assay concerns the target HLA-A*02:02. Briefly: IEDB peptide-MHC binding, purified MHC/competitive/radioactivity; filed as Kd, often an IC50 or EC50 that approximates it; ≥ and ≤ were set here for values at or beyond the usual limits of such assays. The settings on record: source organism: Mammarenavirus juninense.
The next assay deals with HLA-A*02:03. Described as above. The settings on record: source organism: Mammarenavirus juninense.
The target of the next assay is HLA-A*02:06. Described as above. To be noted: source organism: Mammarenavirus juninense.
Setting [10] is: source organism: Zaire ebolavirus.
Where [11] appears, read: source organism: Sudan ebolavirus.
[12] abbreviates: source organism: Dengue virus 4 Philippines/H241/1956.
Where [13] appears, read: source organism: Dengue virus 1 Brazil/97-11/1997.
Setting [14] is: source organism: Mycobacterium tuberculosis.
Setting [15] is: source organism: Dengue virus 3 Singapore/8120/1995.
[16] abbreviates: source organism: Yersinia pestis.
[17] abbreviates: source organism: Marburg virus - Musoke, Kenya, 1980.
The mark [18] stands for this setting: source organism: Dengue virus 2 Jamaica/1409/1983.
[19] abbreviates: source organism: West Nile virus NY-99.

A word on the IC50: it is the point on the concentration scale where inhibition reaches its midpoint. A lower IC50 goes with higher potency. For orientation: Kd means the constant that tells how readily two partners part at equilibrium.

In the assay with HLA-A*02:01 [1] (setting [10]), VKRLEELLP returned an IC50 of at least 375 µM.
Sequence RLGADLDAV registered an IC50 with HLA-A*02:01 [1] (source organism: Vaccinia virus WR) of 7.72 µM.
In the case of NITTAVKTV, the IC50 with HLA-A*02:01 [1] (setting [11]) came to 22.8 µM.
In the assay with HLA-B*07:02 (source organism: Homo sapiens), RPVSPGKDI gave a Kd of 0.0453 µM.
Turning to IGKMLESTY, in the assay with HLA-A*30:02 (setting [12]), the dissociation constant Kd was found to be 0.0185 µM.
EVTAKWLWGF: the equilibrium dissociation constant (Kd) in the assay with HLA-A*26:01 (setting [13]) worked out at 0.0807 µM.
For the sequence TYLHGIFDR, the results for the Kd in the assay with HLA-A*03:01 [2] (source organism: Vibrio cholerae) and with HLA-A*31:01 were at least 20 µM and 0.0171 µM, respectively.
DLKPQNILL returned a Kd in the assay with HLA-A*02:01 [3] (source organism: Homo sapiens) of 2 µM.
LQLNETIYT came in with an IC50 with HLA-A*02:01 [1] (setting [10]) of 2.7 µM.
Consider FVRLDRPHT, for which, in the assay with HLA-A*02:01 [1] (setting [11]), the IC50 was at least 101 µM.
In the assay with HLA-B*58:01 (source organism: Influenza A virus (A/Sichuan/2/1987(H3N2))), IAGFIENGW registered an equilibrium dissociation constant (Kd) of 0.144 µM.
Regarding SSEQTFMYY, the Kd in the assay with HLA-A*01:01 [4] was determined as 0.0421 µM; with HLA-A*03:01 [2] (source organism: Homo sapiens), 10.2 µM; with HLA-A*11:01 [5], 0.263 µM; with HLA-A*69:01 (source organism: Homo sapiens) it was 8.34 µM; with HLA-B*15:01 (source organism: Homo sapiens), 1.42 µM; with HLA-B*58:01 (source organism: Homo sapiens), 2.48 µM.
ALVREGLRNV returned an IC50 with HLA-A*02:01 [1] (setting [14]) of 0.13 µM.
KLSDGVAVL came in with an IC50 with HLA-A*02:01 [1] (source organism: Homo sapiens) of 6.5 µM.
VVQHENLKY: the dissociation constant Kd with HLA-A*01:01 [6] (setting [15]) was found to be 2.4 µM; in the assay with HLA-A*30:02 (setting [15]), 0.266 µM.
For the sequence LLHDIGKPV, the values for the Kd with HLA-A*69:01 (setting [14]) and with HLA-B*07:02 (setting [14]) were at least 20 µM and 11.5 µM, respectively.
On to RMIGGIGRFYI, for which the Kd in the assay with HLA-A*02:01 [3] (source organism: Influenza A virus (A/swine/Italy/2/1979(H1N1))) was determined as 0.0003 µM.
DVDKLVCRD displayed an IC50 in the assay with HLA-A*02:01 [1] (setting [10]) of 51.9 µM.
Still for that read-out and setting: to VATDVPSAT belongs at least 157 µM.
The same measure, in the same setting: to DDQEKKILM belongs at least 1720 µM.
In the case of ERLQICQRK, the Kd was found to be 10.4 µM in the assay with HLA-A*03:01 [2] (source organism: Homo sapiens), 9.4 µM with HLA-A*11:01 [5] and 1.69 µM with HLA-B*27:05.
In the case of LLAALFHDI, the dissociation constant Kd with HLA-A*02:01 [7] (setting [16]) was 0.085 µM; in the assay with HLA-A*69:01 (setting [16]), 1.94 µM; in the assay with HLA-B*15:01 (setting [16]), 2.48 µM; with HLA-B*58:01 (setting [16]) it was 1.94 µM.
For FLYDRIAST, the Kd in the assay with HLA-A*02:01 [7] (setting [17]) turned out to be 0.005 µM; in the assay with HLA-A*69:01 (setting [17]), 1.84 µM.
TWAQNIPTAI: the Kd with HLA-A*24:02 was found to be 0.681 µM.
Regarding CTNTFVLKK, the Kd with HLA-A*01:01 [6] (source organism: Dengue virus 3 Martinique/1243/1999) amounted to 5.09 µM; in the assay with HLA-A*03:01 [8] it was 0.00971 µM; with HLA-A*11:01 [9] it was 0.0778 µM.
Regarding FTNMEAQLI, the Kd with HLA-A*01:01 [6] (setting [18]) was determined as 2.16 µM.
The sequence AEDMGNGCF yielded a Kd in the assay with HLA-B*40:01 of 0.166 µM.
For the sequence SLFGQRIEV, in the assay with HLA-A*02:01 [1] (setting [19]), the IC50 was 0.204 µM. In addition, the Kd in the assay with HLA-A*02:01 [3] (source organism: West Nile virus) stood at 0.0009 µM.
As for TPRKKNYHF, in the assay with HLA-A*02:01 [3] (source organism: Vibrio parahaemolyticus K5030), the Kd was at least 20 µM.
Consider TVIEELEKL, for which the Kd with HLA-A*26:01 (setting [12]) is 0.496 µM.
Sequence ITNTIAGVA displayed an IC50 with HLA-A*02:01 [1] (setting [10]) of 19.9 µM.
On to TANIFRGSY, for which, in the assay with HLA-A*30:02 (setting [12]), the Kd is 0.00679 µM.
Sequence SLTSINVQA had an IC50 in the assay with HLA-A*02:01 [1] (setting [19]) of 0.503 µM.
In the case of DVFCDSKLM, the Kd with HLA-A*26:01 (setting [18]) came out at 1.88 µM.
The sequence VMAPDKPSL displayed a Kd in the assay with HLA-A*69:01 (source organism: Yellow fever virus) of at least 20 µM.
As for NSTSTWVTY, the Kd in the assay with HLA-A*01:01 [6] (setting [18]) was 7.23 µM; in the assay with HLA-A*30:02 (setting [18]) it was 1.73 µM.
On to SRNSTHEMY, for which the Kd in the assay with HLA-A*30:02 (source organism: Dengue virus 4 Thailand/0348/1991) is 1.81 µM.
EADPTGHSY yielded a Kd with HLA-B*15:01 (source organism: Homo sapiens) of 13.5 µM.
For the sequence IFISANNQW, in the assay with HLA-B*58:01 (source organism: Vibrio vulnificus), the dissociation constant Kd amounted to 0.0228 µM.
For the sequence SIILEFFLM, the Kd with HLA-A*26:01 (setting [13]) stood at 4.19 µM.
On to AMPGVLSYV, for which the Kd with HLA-A*02:01 [7] (source organism: Mammarenavirus juninense) was found to be 0.0036 µM; in the assay with HLA-A*02:02 it was 0.00422 µM; in the assay with HLA-A*02:03, 0.00729 µM; in the assay with HLA-A*02:06, 0.0218 µM.
